Results reported in the supplement of paper PMC7877785.
± gives the uncertainty stated by the source.

Assay: self-splicing fitness, log relative to wild type (ln ratio); higher = more splicing; Tetrahymena group I intron in knt gene, E. coli kanamycin selection, DiMSum; sequences stand for … in CUCUCU…GGAGGGAAAAGUUAUCAGGCAUGCACCUGGUAGCUAGUCUUUAAACCAAUAGAUUGCAUCGGUUUAAAAGGCAAGACCGUCAAAUUGCGGGAAAGGGGUCAACAGCCGUUCAGUACCAAGUCUCAGGGGAAACUUUGAGAUGGCCUUGCAAAGGGUAUGGUAAUAAGCUGACGGACAUGGUCCUAACCACGCAGCCAAGUCCUAAGUCAACAGAUCUUCUGUUGAUAUGGAUGCAGUUCACAGACUAAAUGUCGGUCGGGGAAGAUGUAUUCUUCUCAUAAGAUAUAGUCGGACCUCUCCUUAAUGGGAGCUAGCGGAUGAAGUGAUGCAACACUGGAGCCGCUGGGAACUAAUUUGUAUGCGAAAGUAUAUUGAUUAGUUUUGGAGUACUCGUGGUCG
Summary of the method: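 The eight P1ex-region nucleotides of an intron in the knt kanamycin-resistance gene on pET-22b(+) were all randomised and the library put into E. coli BL21(DE3). Six replicate transformations were grown overnight at 37°C or 30°C on LB agar with or without 25 μg/mL kanamycin, together with 100 μg/mL carbenicillin, 50 μM IPTG and 0.2% rhamnose. Colonies were pooled and amplicon-sequenced on an Illumina HiSeq 2500. Fitness from DiMSum is the error-weighted combination of wild-type-normalised replicate fold changes, kanamycin over none.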

Row | Sequence | self-splicing fitness (ln) (30 °C) | self-splicing fitness (ln) (37 °C)
1 | AGAGAGCAAUAUUACGGUUC | -4.09 ± 0.37 | -2.11 ± 0.29
2 | GGCGAGCAAUAUUACGCUUA | -1.63 ± 0.15 | -0.623 ± 0.15
3 | AAUAAGCAAUAUUACGUUGG | -2.74 ± 0.28 | -3 ± 0.38
4 | UAAUAGCAAUAUUACGGAUU | -2.69 ± 0.36 | -1.02 ± 0.28
5 | AAUAAGCAAUAUUACGAGCC | -3.73 ± 0.29 | -1.64 ± 0.22
6 | AGAUAGCAAUAUUACGCAUG | -1.58 ± 0.14 | -0.884 ± 0.14
7 | ACCUAGCAAUAUUACGUAUC | -2.83 ± 0.083 | -1.85 ± 0.1
8 | GGGUAGCAAUAUUACGUGUC | -2.16 ± 0.18 | -0.684 ± 0.15
9 | CCAGAGCAAUAUUACGCCAU | -2.03 ± 0.19 | -2.75 ± 0.27
10 | UAUCAGCAAUAUUACGGUGA | -0.121 ± 0.054 | -0.19 ± 0.065
11 | CGUUAGCAAUAUUACGAUCC | -1.74 ± 0.19 | -0.851 ± 0.21
12 | CGUUAGCAAUAUUACGGUAC | -2.98 ± 0.24 | -2.96 ± 0.38
13 | GCAUAGCAAUAUUACGCGUC | -3.3 ± 0.2 | -2.97 ± 0.4
14 | CCCAAGCAAUAUUACGCGAG | -3.22 ± 0.24 | -2.58 ± 0.2
15 | ACAGAGCAAUAUUACGAGGC | -3.42 ± 0.38 | -2.15 ± 0.25
16 | CUCAAGCAAUAUUACGGAUA | -2.72 ± 0.24 | -2.32 ± 0.28
17 | UAAAAGCAAUAUUACGCCAA | -2.34 ± 0.22 | -1.63 ± 0.18
18 | AAGAAGCAAUAUUACGUGGG | -2.71 ± 0.13 | -2.57 ± 0.14
19 | CAACAGCAAUAUUACGCCGC | -4.57 ± 0.34 | –
20 | GUCUAGCAAUAUUACGUCGG | -3.43 ± 0.2 | -2.51 ± 0.2

Row | Sequence | self-splicing fitness (ln) (30 °C) | self-splicing fitness (ln) (37 °C)
21 | GAACAGCAAUAUUACGCAUG | -1.18 ± 0.064 | -0.291 ± 0.08
22 | UAUAAGCAAUAUUACGCCAA | -1.14 ± 0.29 | -0.0916 ± 0.42
23 | UAUGAGCAAUAUUACGCAGU | -1.98 ± 0.24 | -0.419 ± 0.21
24 | CCCCAGCAAUAUUACGUAGA | -2.95 ± 0.12 | -2.7 ± 0.18
25 | GAGAAGCAAUAUUACGAUUU | -0.24 ± 0.081 | 0.493 ± 0.087
26 | UAUCAGCAAUAUUACGAAGA | -0.93 ± 0.12 | -0.91 ± 0.13
27 | CACUAGCAAUAUUACGCUAC | – | -2.31 ± 0.25
28 | UAAAAGCAAUAUUACGGUAG | -1.14 ± 0.086 | -0.722 ± 0.097
29 | CACCAGCAAUAUUACGCGCC | -2.68 ± 0.17 | -2.4 ± 0.2
30 | AACAAGCAAUAUUACGAAAU | -3.53 ± 0.13 | -1.4 ± 0.095
31 | CUAUAGCAAUAUUACGCGAA | -3.27 ± 0.2 | -3.06 ± 0.33
32 | AGAGAGCAAUAUUACGCACA | -3.27 ± 0.48 | –
33 | UUGAAGCAAUAUUACGCGUG | -0.176 ± 0.07 | -0.123 ± 0.099
34 | UCGAAGCAAUAUUACGUUGG | -2.99 ± 0.12 | -1.86 ± 0.15
35 | CUGUAGCAAUAUUACGAGAA | – | -2.78 ± 0.38
36 | CUCUAGCAAUAUUACGUCUU | -2.57 ± 0.12 | -3.16 ± 0.16
37 | UUGGAGCAAUAUUACGAAUU | -1.68 ± 0.31 | -0.925 ± 0.41
38 | UUUCAGCAAUAUUACGCAAG | -1.27 ± 0.11 | -0.106 ± 0.13
39 | AAGCAGCAAUAUUACGGGAA | -3.05 ± 0.22 | -2.15 ± 0.17
